Measured values published in patent US20230059344A1.

Target: h4-1-BB on a genetically engineered Jurkat T cell line (Promega 4-1BB Bioassay) (human) (UniProt Q07011)
Assay: cell-based or functional assay
Conditions: scale: relative luciferase

h4-1-BB on a genetically engineered Jurkat T cell line (Promega 4-1BB Bioassay) (human), sequence (Q07011 24-255, change not shown): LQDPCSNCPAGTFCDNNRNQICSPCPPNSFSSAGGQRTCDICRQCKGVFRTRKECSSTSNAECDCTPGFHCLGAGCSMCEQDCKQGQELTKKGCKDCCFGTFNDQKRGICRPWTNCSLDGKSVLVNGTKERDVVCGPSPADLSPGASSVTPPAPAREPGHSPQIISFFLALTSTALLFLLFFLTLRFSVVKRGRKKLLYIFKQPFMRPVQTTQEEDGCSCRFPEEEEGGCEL

Substance: His-tagged h4-1BBL cross-linked with an Fc (from UniProt P41273 71-254) (ligand)
- luciferase expression by Jurkat-h4-1BB cells: 1
